Experimental findings from patent US20220204630A1 (SUNSHINE LAKE PHARMA, published 2022) are described below.

Experiment [1] concerns the target T1, TrKA receptor protein coated in ELISA (Examples 11 and 16) (human, UniProt P04629 33-423, limits assumed).
T1 construct: also called Human-TrKA
Kind of experiment: competition ELISA: antibody titrated against biotinylated NGF binding to TrkA, OD450. For orientation: ELISA stands for enzyme-linked immunosorbent assay.

Experiment [2] concerns the target T2, TrkA protein on HEK-293T-TrkA cells or NIH-3T3-TrkA cells (human, UniProt P04629 33-796). Kind of experiment: cell-based or functional assay.
The target of experiment [3] is T1, TrKA receptor protein coated in ELISA …. Nature of the experiment: ELISA plateau, antibody up to 20 µg/mL on TrKA. As to the method: The TrkA receptor family belongs to receptor tyrosine kinases (RTKs), including TrkA, TrkB, and TrkC, which have high homology. TrkA is a receptor tyrosine kinase of nerve growth factor (NGF) that selectively binds to NGF and is a functional receptor for NGF. In addition to the high-affinity receptor TrkA, NGF can also bind to its low-affinity receptor p75. In the test, the binding of test antibodies at different concentrations (20 μg/mL, 10 μg/mL, 5 μg/mL, 2.5 μg/mL, 1.25 μg/mL, 0.625 μg/mL, 0.313 μg/mL, 0.156 μg/mL, 0.078 μg/mL, 0.039 μg/mL, 0.019 μg/mL) to TrKA, TrKB, TrKC, and P75 respectively was detected by the ELISA method, and the specificity of the test antibody binding to the target TrKA was evaluated. In the FIG. 8, at a certain antibody concentration, the OD₄₅₀ value reflects the binding strength of the antibody to the protein. The larger the reading, the stronger the binding of the antibody to the protein. […] It can be seen that the specificity of the binding of the test antibodies to the target TrKA is very good.

For experiment [4], the target named is T2, TrkA protein on HEK-293T-TrkA cells or …. Kind of experiment: flow cytometry, antibody titrated on HEK-293T-TrKA cells, Parent %. From the text:
(§1) In FIG. 7, the EC₅₀ (half-binding concentration) value reflects the affinity of the antibody. The smaller the EC₅₀ value, the higher the affinity of the antibody.
Background: A flow cytometer gives signals particle by particle.

Experiment [5] addresses T3, TRKA protein with a histidine tag (human, UniProt P04629 33-423, limits assumed).
T3 construct: it is put last here only for order; also called TRKA (50 µg/ml, 75 kDa, provided by HEC Labs); not shown: histidine tag
Kind of experiment: BLI (Fortebio Octet RED96), His-tagged TRKA on Ni-NTA sensor, antibody 80-2.93 nM. As for the experimental part: They were added to each well of the sample plate. […] The KD value is the equilibrium dissociation constant between the antibody and its antigen, and the KD value is inversely proportional to the affinity. The KD value is related to the antibody concentration (the amount of antibody required for a particular experiment). The lower the KD value (the lower the concentration), the higher the affinity of the antibody. High-affinity antibodies are generally considered to be in the low nanomolar range (10⁻⁹).
For orientation: BLI is a label-free optical method that tracks binding on a fibre tip over time.

In experiment [6] the target is T2, TrkA protein on HEK-293T-TrkA cells or …. Nature of the experiment: flow cytometry competition: antibody titrated against biotinylated NGF binding to HEK-293T-TrkA cells, % parent.
Experiment [7] shares this target. Kind of experiment: flow cytometry on HEK-293T-TrKA cells.
Text: as §1

Experiment [8] addresses T4, Mouse-TrKA protein (mouse, UniProt Q3UFB7 34-420, limits assumed).
T4 construct: also called Mouse-TrKA receptor
Kind of experiment: ELISA, antibody titrated on Mouse-TrKA protein, OD 450. As to the method: Test antibody (23E12, 21E5) samples were diluted with PBS buffer solution to 11 concentration gradients (20 μg/mL, 10 μg/mL, 5 μg/mL, 2.5 μg/mL, 1.25 μg/mL, […], 0.313 μg/mL, 0.156 μg/mL, 0.078 μg/mL, 0.039 μg/mL, 0.019 μg/mL). The binding of the test antibody to the Mouse-TrKA receptor at each concentration gradient was detected by the ELISA method, thus the binding ability of the test antibody to the Mouse-TrKA protein was detected. In FIG. 9, at a certain antibody concentration, the OD₄₅₀ value reflects the binding strength of the antibody to the protein. The larger the reading, the stronger the binding of the antibody to the protein. […] It can be seen that the test antibodies 23E12, 21E5, and Mouse-TrKA protein all have good binding ability.

Experiment [9] deals with T5, Mouse-TrKA receptor on the surface of HEK293T-Mouse-TrKA cells (mouse, UniProt Q3UFB7 34-799).
T5 construct: whole, on cells; also called Mouse-TrkA protein on HEK293T-Mouse-TrkA cells
T5 sequence (Q3UFB7 34-799): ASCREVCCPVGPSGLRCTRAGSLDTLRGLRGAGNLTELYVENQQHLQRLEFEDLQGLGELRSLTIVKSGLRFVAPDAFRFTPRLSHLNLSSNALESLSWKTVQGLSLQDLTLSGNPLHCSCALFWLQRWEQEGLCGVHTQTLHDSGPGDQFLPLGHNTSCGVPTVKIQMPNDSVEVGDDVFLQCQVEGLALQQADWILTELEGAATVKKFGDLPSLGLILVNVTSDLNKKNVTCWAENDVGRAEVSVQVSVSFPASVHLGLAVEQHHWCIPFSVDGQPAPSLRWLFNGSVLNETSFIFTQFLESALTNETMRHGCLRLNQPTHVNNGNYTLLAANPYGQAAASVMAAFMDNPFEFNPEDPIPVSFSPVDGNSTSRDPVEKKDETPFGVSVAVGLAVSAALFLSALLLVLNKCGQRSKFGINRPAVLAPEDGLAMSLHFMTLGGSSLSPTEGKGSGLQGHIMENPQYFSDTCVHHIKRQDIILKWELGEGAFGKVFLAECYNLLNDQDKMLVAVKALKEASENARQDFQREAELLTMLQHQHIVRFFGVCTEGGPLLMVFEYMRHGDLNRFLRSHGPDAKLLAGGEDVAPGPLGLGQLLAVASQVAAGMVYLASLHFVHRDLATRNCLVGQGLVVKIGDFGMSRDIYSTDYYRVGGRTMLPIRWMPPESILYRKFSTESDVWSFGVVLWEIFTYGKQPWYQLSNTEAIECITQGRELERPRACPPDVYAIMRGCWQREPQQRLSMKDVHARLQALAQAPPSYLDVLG
Kind of experiment: flow cytometry on HEK293T-Mouse-TrKA cells. As for the experimental part: The test antibody 23E12 samples were diluted with PBS buffer to 11 concentration gradients (20 μg/mL, 10 μg/mL, 5 μg/mL, 2.5 μg/mL, 1.25 μg/mL, 0.625 μg/mL, 0.313 μg/mL, 0.156 μg/mL, 0.078 μg/mL, 0.039 μg/mL, 0.019 μg/mL), and the binding of the test antibody to the Mouse-TrKA receptor on the surface of HEK293T-Mouse-TrKA cells at each concentration gradient was detected by flow cytometry. The binding ability of the antibody to Mouse-TrKA protein was tested. In FIG. 10, the EC₅₀ (half the binding concentration) value reflects the binding capacity of the antibody. The smaller the EC₅₀ value, the stronger the binding capacity of the antibody. […] It can be seen that the test antibody 23E12 has a good binding ability with the Mouse-TrKA receptor on the surface of HEK293T-Mouse-TrKA cells.

Experiment [10] concerns the target T5, Mouse-TrKA receptor on the surface of …. Nature of the experiment: flow cytometry competition on HEK293T-Mouse-TrkA cells; competitor biotinylated Mouse-NGF. As to the method:
Mouse-NGF was biotinylated. Mouse-NGF could bind to the extracellular region of Mouse-TrkA protein on HEK293 T-Mouse-TrkA cells, and anti-Mouse-TrkA monoclonal antibody could also bind to the extracellular region of Mouse-TrkA protein on HEK293T-Mouse-TrkA cells. A competitive experiment was designed to detect the binding of Mouse-NGF to the extracellular region of Mouse-TrkA protein on HEK293T-Mouse-TrkA cells under different concentrations (20 μg/mL, 10 μg/mL, 5 μg/mL, 2.5 μg/mL, 1.25 μg/mL, 0.625 μg/mL, 0.313 μg/mL, 0.156 μg/mL, 0.078 μg/mL, 0.039 μg/mL, 0.019 μg/mL) of test antibodies by flow cytometry, thus the inhibition effect of test antibodies on the binding of Mouse-NGF and Mouse-TrKA was investigated. In FIG. 12, the parent % value reflects the Mouse-NGF signal that binds to the extracellular region of the Mouse-TrKA protein on the HEK293T-Mouse-TrkA cell.

T1 sequence (P04629 33-423 limits assumed): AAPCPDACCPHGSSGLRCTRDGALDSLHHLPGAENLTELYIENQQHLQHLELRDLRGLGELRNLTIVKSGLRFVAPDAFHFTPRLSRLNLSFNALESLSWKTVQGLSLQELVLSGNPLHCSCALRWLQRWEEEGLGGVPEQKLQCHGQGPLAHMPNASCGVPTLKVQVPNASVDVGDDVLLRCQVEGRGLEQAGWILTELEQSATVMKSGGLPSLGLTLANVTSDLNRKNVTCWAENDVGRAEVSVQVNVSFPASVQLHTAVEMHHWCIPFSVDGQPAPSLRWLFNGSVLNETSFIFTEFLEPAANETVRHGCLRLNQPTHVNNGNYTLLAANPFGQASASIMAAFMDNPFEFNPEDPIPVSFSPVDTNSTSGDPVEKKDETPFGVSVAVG
T3 sequence (P04629 33-423 limits assumed): as above
T2 sequence (P04629 33-796): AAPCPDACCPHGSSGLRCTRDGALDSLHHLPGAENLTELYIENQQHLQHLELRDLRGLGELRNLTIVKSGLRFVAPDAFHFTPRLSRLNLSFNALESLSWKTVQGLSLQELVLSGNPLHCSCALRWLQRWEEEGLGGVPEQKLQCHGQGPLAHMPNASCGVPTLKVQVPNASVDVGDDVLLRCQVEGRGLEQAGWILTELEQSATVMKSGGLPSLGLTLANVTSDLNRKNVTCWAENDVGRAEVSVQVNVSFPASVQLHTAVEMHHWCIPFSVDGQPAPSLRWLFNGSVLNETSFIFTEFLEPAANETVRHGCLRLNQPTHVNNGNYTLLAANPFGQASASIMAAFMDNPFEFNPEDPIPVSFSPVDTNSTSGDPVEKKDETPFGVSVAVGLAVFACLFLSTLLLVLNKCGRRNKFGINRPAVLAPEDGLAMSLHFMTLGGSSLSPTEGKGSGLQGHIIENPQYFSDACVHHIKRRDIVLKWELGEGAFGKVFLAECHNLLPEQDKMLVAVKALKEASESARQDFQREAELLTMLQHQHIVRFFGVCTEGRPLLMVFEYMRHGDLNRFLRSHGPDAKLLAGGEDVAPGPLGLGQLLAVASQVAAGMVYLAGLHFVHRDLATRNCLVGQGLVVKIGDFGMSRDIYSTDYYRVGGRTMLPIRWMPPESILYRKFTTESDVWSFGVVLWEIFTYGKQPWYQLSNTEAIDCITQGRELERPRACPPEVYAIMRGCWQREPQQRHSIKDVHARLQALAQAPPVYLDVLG
T4 sequence (Q3UFB7 34-420 limits assumed): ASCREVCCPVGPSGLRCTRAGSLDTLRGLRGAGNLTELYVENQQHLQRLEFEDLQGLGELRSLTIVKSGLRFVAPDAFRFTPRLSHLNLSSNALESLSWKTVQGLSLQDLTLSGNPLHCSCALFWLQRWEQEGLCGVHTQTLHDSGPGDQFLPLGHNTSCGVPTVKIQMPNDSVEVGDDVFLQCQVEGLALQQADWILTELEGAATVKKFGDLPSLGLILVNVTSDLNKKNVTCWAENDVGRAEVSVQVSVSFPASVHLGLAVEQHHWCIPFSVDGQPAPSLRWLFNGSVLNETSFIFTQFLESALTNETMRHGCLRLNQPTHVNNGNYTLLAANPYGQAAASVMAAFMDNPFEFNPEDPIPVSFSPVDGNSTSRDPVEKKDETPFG

B1: 4H4 chimeric antibody (antibody, human IgG4 S228P, kappa, F234A L235A, V domains shown)
VH: EVQLQQSGPELVKPGASMKISCKASGYSFTGYTMNWVKQSHGKNLEWIGLINPYNGGTRYNQKFKGKATLTVDKSSSTAYMELLSLTSEDSAVYYCASSSYRNDGNWYFDVWGAGTTVTVSS
VL: DIVMTQSPAIMSASPGEKVTMTCSASSSVSYMHWYQQKSGTSPKRWIYDTSKLASGVPARFSGSGSGTSYSLTISSMETEDAATYYCQQWSSNPPTFGGGTKLELKR
notes: expressed in CHO cells
Turning to B1, the IC50 (in general, the point on the concentration scale where inhibition reaches its midpoint) in [1] is 0.551 µg/mL. The “IC50; p-TrkA level by AlphaLISA in NGF-stimulated NIH3T3-TrkA stable cell line” value (from here on “IC50; p-TrkA level by AlphaLISA”) in [2] stood at 0.129 µg/mL. The molecule also gave an OD450 in experiment [3] of around 3 OD450. Besides, in [4], the EC50 – broadly, the concentration giving half of the maximal effect – stood at 0.211 µg/mL. For the same molecule, in [5], binding was characterised by a dissociation constant (Kd) of 1.68 nM; the off-rate (koff) (as a rule, the rate constant with which the complex falls apart) came out at 0.000234 s⁻¹; the on-rate (kon) (in general, the rate constant with which the complex forms) stood at 139000 M⁻¹ s⁻¹. In addition, the IC50 in [6] came out at 2.04 µg/mL. Further, in experiment [7], the EC50 was below 1.5 µg/mL.

B2: 21E5 chimeric antibody (antibody, human IgG4 S228P, kappa, F234A L235A, V domains shown)
VH: QVQLQQSGAELMKPGASMKISCKATGYTFSTYWIEWVKQRPGHGLEWIGENLPGRHITNYNEKFKGKATFTADTSSNTAYMQLSSLTSEDSAVYYCARGRGTYYFDYWGQGTPLTVSS
VL: DIVMTQAAFSTPVTLGTSASISCRSSQSLLHSNGITYLYWYLQKPGQSPQLLIYQMSNLASGVPDRFSSSGSGTDFTLRISRVEAEDVGVYYCAQNLEFPFTFGSGTKLEIKR
notes: expressed in CHO cells
As to B2, the half-inhibitory concentration (IC50) in experiment [1] worked out at 0.294 µg/mL; in [6], 0.547 µg/mL. The EC50 is 0.0954 µg/mL in experiment [8], 0.0575 µg/mL in experiment [4] and below 1.5 µg/mL in [7]. In addition, the “IC50; p-TrkA level by AlphaLISA” value in experiment [2] was found to be 0.0856 µg/mL. The molecule also displayed an OD450 in experiment [3] of around 3 OD450. The affinity in experiment [5], expressed as Kd, was 0.173 nM. For the same molecule, in [5], the koff was 0.000175 s⁻¹. The molecule also had a kon in [5] of 1.01e+06 M⁻¹ s⁻¹.

B3: 23E12 chimeric antibody (antibody, human IgG4 S228P, kappa, F234A L235A, V domains shown)
VH: QVQLQQSGAELVRPGTSVKISCKASGYAFTNYWLGWMKQRPGHGLEWIGDFYPRTGNTFYNENFKGKVTLTADKSSNTAYMQLSSLTSEDSAVYLCARAGTGFDYWGQGTTLTVSS
VL: SIVMTQSPKSMSMSVGERVTLSCKASENVGGYVSWYQQKPDQSPKLLIYGASSRHTGVPDRFTGSGSETDFTLTISSVQAEDLAAYHCGQNYIYPFTFGGGTKLEIKR
notes: expressed in CHO cells
On to B3, for which the concentration giving a half-maximal response (EC50) is 0.0801 µg/mL in [9], 0.0208 µg/mL in [8], 0.0443 µg/mL in [4] and below 1.5 µg/mL in [7]. The concentration for half-maximal inhibition (IC50) in experiment [1] was 0.213 µg/mL; in experiment [10], 0.0515 µg/mL; in experiment [6], 0.426 µg/mL. Further, in experiment [2], the “IC50; p-TrkA level by AlphaLISA” value is 0.0537 µg/mL. In addition, the OD450 in experiment [3] is around 3 OD450. For the same molecule, the Kd (as a rule, the concentration at which binding is half-saturated) in experiment [5] came out at 0.057 nM. This molecule gave a koff in experiment [5] of 0.000109 s⁻¹. The molecule also had a kon in experiment [5] of 1.9e+06 M⁻¹ s⁻¹.

B4: 27H3 chimeric antibody (antibody, human IgG4 S228P, kappa, F234A L235A, V domains shown)
VH: QVQLQQSGAELMKPGASVKISCKTTGYRFSSYWIEWVKQRPGHGLEWLGEILPGRGIINYNENFRGKATFTADTSSNTAYVQLSSLTSEDSAVYFCARTDPPYFGVWGAGTTVTVSS
VL: QAVVTQESALTTSPGETVTLTCRSSTGAVTISNYANWVQEKPDHLFTGLIGGTNNRPPGVPARFSGSLIGDKAALTITGAQTEDEAIYFCVLWYSNHWVFGGGTKLTVLR
notes: expressed in CHO cells
In the case of B4, in experiment [1], the IC50 is 0.11 µg/mL. Also, the “IC50; p-TrkA level by AlphaLISA” value in experiment [2] worked out at 0.0437 µg/mL. Further, in experiment [3], the OD450 is around 3 OD450. In addition, the EC50 in experiment [4] came out at 0.0447 µg/mL. In addition, in [5], the Kd came to 0.178 nM, the koff turned out to be 0.000279 s⁻¹ and the kon worked out at 1.57e+06 M⁻¹ s⁻¹. The IC50 in [6] was 0.369 µg/mL. The EC50 in experiment [7] was below 1.5 µg/mL.
